Changes are numbered by the printed parent chain.
T1: APBA2_2, Q99767
T1 sequence (Q99767 654-744, limits assumed, looked up): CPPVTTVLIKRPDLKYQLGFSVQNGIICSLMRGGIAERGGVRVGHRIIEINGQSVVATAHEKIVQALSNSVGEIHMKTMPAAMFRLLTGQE

T2: FRMPD1, Q5SYB0
T2 sequence (Q5SYB0 52-145, limits assumed, looked up): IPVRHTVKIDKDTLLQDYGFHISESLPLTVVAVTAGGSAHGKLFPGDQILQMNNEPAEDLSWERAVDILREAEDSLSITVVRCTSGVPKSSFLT

T3: GRIP1_4, Q9Y3R0
T3 sequence (Q9Y3R0 467-571, limits assumed, looked up): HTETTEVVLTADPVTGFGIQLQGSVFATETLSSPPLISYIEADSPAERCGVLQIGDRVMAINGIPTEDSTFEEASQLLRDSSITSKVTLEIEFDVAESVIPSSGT

T4: GRIP1_7, Q9Y3R0
T4 sequence (Q9Y3R0 999-1096, limits assumed, looked up): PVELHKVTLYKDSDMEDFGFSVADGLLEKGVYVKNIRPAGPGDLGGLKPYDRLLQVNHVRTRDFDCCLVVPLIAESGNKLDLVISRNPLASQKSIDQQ

T5: LIN7A, O14910
T5 sequence (O14910 103-200, limits assumed, looked up): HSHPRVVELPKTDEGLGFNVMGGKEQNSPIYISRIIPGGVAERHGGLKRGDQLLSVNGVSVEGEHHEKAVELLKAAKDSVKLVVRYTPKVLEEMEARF

T6: LIN7B, Q9HAP6
T6 sequence (Q9HAP6 88-185, limits assumed, looked up): T5 sequence (O14910 103-200, limits assumed, looked up) with S2A, V20I, I35V, E42D, H65Q, K77Q, D78G, K89R

T7: PCLO, Q9Y6V0
T7 sequence (Q9Y6V0 4491-4600, limits assumed, looked up): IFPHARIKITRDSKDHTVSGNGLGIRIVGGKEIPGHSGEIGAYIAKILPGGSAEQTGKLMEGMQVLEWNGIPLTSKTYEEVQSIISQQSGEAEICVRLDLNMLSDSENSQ

T8: PDZD7_3, Q9H5P4
T8 sequence (Q9H5P4 857-944, limits assumed, looked up): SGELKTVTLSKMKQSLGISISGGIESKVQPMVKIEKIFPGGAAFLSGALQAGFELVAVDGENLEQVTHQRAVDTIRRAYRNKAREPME

T9: PTPN13_1, Q12923
T9 sequence (Q12923 1088-1188, limits assumed, looked up): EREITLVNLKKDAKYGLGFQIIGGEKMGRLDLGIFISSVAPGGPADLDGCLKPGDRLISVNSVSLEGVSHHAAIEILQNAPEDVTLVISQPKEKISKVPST

T10: TIAM2, Q8IVF5
T10 sequence (Q8IVF5 885-986, limits assumed, looked up): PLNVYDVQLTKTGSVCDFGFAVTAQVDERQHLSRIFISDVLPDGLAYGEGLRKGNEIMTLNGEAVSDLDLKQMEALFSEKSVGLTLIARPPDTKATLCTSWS


Experiments:
Test in all cases: holdup assay
Design in all cases: key: below the threshold = too weak to quantify, mostly under pKd 3.1 to 4
Details in all cases: plain residues with an end cap or a label only (N-terminal biotin on a linker: ado-ado)
APBA2_2, Q99767 = target: T1, APBA2_2, Q99767
DLG2_3, Q15700 = target: DLG2_3, Q15700
DLG4_2, P78352 = target: DLG4_2, P78352
DLG4_2, P78352, sequence (P78352 155-259): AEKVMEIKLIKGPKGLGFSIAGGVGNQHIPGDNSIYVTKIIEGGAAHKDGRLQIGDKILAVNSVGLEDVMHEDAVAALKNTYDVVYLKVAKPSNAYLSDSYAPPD

FRMPD1, Q5SYB0 = target: T2, FRMPD1, Q5SYB0
FRMPD3, Q5JV73 = target: FRMPD3, Q5JV73
FRMPD3, Q5JV73, sequence (Q5JV73 12-100): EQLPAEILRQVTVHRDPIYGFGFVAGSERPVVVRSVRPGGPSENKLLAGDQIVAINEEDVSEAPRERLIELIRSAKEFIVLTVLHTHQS

FRMPD4, Q14CM0 = target: FRMPD4, Q14CM0
FRMPD4, Q14CM0, sequence (Q14CM0 67-160): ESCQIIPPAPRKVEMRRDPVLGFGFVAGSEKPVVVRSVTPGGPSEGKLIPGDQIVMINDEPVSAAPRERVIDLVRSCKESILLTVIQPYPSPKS

GRID2IP_1, A4D2P6 = target: GRID2IP_1, A4D2P6
GRID2IP_1, A4D2P6, sequence (A4D2P6 1-87): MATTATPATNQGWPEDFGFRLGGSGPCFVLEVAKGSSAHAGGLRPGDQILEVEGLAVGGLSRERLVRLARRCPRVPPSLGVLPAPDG

GRID2IP_2, A4D2P6 = target: GRID2IP_2, A4D2P6
GRID2IP_2, A4D2P6, sequence (A4D2P6 272-370): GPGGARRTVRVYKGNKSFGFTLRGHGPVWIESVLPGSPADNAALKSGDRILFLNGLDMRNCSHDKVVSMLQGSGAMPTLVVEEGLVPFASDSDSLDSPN

GRIP1_4, Q9Y3R0 = target: T3, GRIP1_4, Q9Y3R0
GRIP1_7, Q9Y3R0 = target: T4, GRIP1_7, Q9Y3R0
IL16_1, Q14005 = target: IL16_1, Q14005
IL16_1, Q14005, sequence (Q14005 210-306): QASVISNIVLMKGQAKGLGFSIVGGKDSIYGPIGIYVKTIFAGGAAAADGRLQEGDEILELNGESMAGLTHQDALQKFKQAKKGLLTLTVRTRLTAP

Inadl_5, Q8NI35 = target: Inadl_5, Q8NI35
Inadl_5, Q8NI35, sequence (Q8NI35 673-780): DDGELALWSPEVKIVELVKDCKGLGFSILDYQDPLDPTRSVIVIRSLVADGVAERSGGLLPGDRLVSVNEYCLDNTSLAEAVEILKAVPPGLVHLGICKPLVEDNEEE

LIN7A, O14910 = target: T5, LIN7A, O14910
LIN7B, Q9HAP6 = target: T6, LIN7B, Q9HAP6
LNX1_1, Q8TBB1 = target: LNX1_1, Q8TBB1
LNX1_1, Q8TBB1, sequence (Q8TBB1 261-371): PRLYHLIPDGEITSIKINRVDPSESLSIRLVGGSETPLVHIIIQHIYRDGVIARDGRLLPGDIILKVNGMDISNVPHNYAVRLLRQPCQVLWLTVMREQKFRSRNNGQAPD

LNX1_3, Q8TBB1 = target: LNX1_3, Q8TBB1
LNX1_3, Q8TBB1, sequence (Q8TBB1 500-596): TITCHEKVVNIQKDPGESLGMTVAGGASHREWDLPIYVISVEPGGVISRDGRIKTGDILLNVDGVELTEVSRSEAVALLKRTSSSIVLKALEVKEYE

MAGI2_3, Q86UL8 = target: MAGI2_3, Q86UL8
MAGI2_3, Q86UL8, sequence (Q86UL8 600-682): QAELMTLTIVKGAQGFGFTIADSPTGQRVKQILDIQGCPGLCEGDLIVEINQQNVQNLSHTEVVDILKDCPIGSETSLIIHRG

MAGI2_4, Q86UL8 = target: MAGI2_4, Q86UL8
MAGI2_4, Q86UL8, sequence (Q86UL8 772-865): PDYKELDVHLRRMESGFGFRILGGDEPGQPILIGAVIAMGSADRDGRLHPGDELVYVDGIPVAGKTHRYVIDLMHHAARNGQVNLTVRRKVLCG

MAGI2_6, Q86UL8 = target: MAGI2_6, Q86UL8
MAGI2_6, Q86UL8, sequence (Q86UL8 1141-1229): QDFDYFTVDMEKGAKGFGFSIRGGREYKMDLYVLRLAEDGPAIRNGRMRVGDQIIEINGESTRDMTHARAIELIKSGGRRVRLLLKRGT

MAST1, Q9Y2H9 = target: MAST1, Q9Y2H9
MAST1, Q9Y2H9, sequence (Q9Y2H9 962-1065): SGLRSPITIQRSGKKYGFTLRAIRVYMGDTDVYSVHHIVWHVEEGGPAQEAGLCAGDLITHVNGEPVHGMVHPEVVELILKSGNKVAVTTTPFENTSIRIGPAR

PCLO, Q9Y6V0 = target: T7, PCLO, Q9Y6V0
PDZD7_3, Q9H5P4 = target: T8, PDZD7_3, Q9H5P4
PDZRN4_1, Q6ZMN7 = target: PDZRN4_1, Q6ZMN7
PDZRN4_1, Q6ZMN7, sequence (Q6ZMN7 213-318): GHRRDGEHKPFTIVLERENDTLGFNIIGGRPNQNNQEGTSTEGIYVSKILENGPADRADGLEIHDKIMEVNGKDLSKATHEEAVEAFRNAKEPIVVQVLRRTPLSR

PTPN13_1, Q12923 = target: T9, PTPN13_1, Q12923
SCRIB_1, Q14160 = target: SCRIB_1, Q14160
SCRIB_1, Q14160, sequence (Q14160 718-814): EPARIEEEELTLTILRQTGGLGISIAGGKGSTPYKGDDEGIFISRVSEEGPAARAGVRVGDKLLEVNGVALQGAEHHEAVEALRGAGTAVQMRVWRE

TIAM2, Q8IVF5 = target: T10, TIAM2, Q8IVF5
TJP1_2, Q07157 = target: TJP1_2, Q07157
TJP1_2, Q07157, sequence (Q07157 181-274): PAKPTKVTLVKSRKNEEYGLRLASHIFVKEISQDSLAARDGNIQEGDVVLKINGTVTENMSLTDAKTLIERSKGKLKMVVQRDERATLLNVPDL

pKd (APBA2_2, Q99767) | pKd (DLG2_3, Q15700) | pKd (DLG4_2, P78352) | pKd (FRMPD1, Q5SYB0) | pKd (FRMPD3, Q5JV73) | pKd (FRMPD4, Q14CM0) | pKd (GRID2IP_1, A4D2P6) | pKd (GRID2IP_2, A4D2P6) | pKd (GRIP1_4, Q9Y3R0) | pKd (GRIP1_7, Q9Y3R0) | pKd (IL16_1, Q14005) | pKd (Inadl_5, Q8NI35) | pKd (LIN7A, O14910) | pKd (LIN7B, Q9HAP6) | pKd (LNX1_1, Q8TBB1) | pKd (LNX1_3, Q8TBB1) | pKd (MAGI2_3, Q86UL8) | pKd (MAGI2_4, Q86UL8) | pKd (MAGI2_6, Q86UL8) | pKd (MAST1, Q9Y2H9) | Binder | other results
below the threshold | 3.63 | 3.73 | below the threshold | 3.94 | 3.87 | below the threshold | below the threshold | below the threshold | 5.06 | below the threshold | 4.82 | below the threshold | 3.63 | below the threshold | 4.49 | below the threshold | 3.8 | 3.56 | 3.95 | SFISKKEWYV [NECTIN1, Q15223] | pKd (PCLO, Q9Y6V0): below the threshold; pKd (PDZD7_3, Q9H5P4): below the threshold; pKd (PDZRN4_1, Q6ZMN7): below the threshold; pKd (PTPN13_1, Q12923): below the threshold; pKd (SCRIB_1, Q14160): below the threshold; pKd (TIAM2, Q8IVF5): 5.09; pKd (TJP1_2, Q07157): below the threshold
below the threshold | 3.49 | below the threshold | below the threshold | below the threshold | below the threshold | below the threshold | 3.77 | below the threshold | below the threshold | below the threshold | below the threshold | below the threshold | below the threshold | below the threshold | below the threshold | below the threshold | 3.72 | below the threshold | below the threshold | AEASVACSLC [PTGIR, P43119] | pKd (PCLO, Q9Y6V0): below the threshold; pKd (PDZD7_3, Q9H5P4): 4.47; pKd (PDZRN4_1, Q6ZMN7): below the threshold; pKd (PTPN13_1, Q12923): below the threshold; pKd (SCRIB_1, Q14160): below the threshold; pKd (TIAM2, Q8IVF5): 3.75; pKd (TJP1_2, Q07157): below the threshold
